T1: fluorescein-labeled Y644-phosphorylated PIPKIγ661 peptide
T1 peptide: fluorescein-CDERSWV[pY]SPLHYSAR

T2: fluorescein-labeled Y649-phosphorylated PIPKIγ661 peptide
T2 peptide: fluorescein-CDERSWVYSPLH[pY]SAR

B1: GST-talin head, wild type (human talin1 1–435) (domain or fragment)
chain: MVALSLKISIGNVVKTMQFEPSTMVYDACRIIRERIPEAPAGPPSDFGLFLSDDDPKKGIWLEAGKALDYYMLRNGDTMEYRKKQRPLKIRMLDGTVKTIMVDDSKTVTDMLMTICARIGITNHDEYSLVRELMEEKKEEITGTLRKDKTLLRDEKKMEKLKQKLHTDDELNWLDHGRTLREQGVEEHETLLLRRKFFYSDQNVDSRDPVQLNLLYVQARDDILNGSHPVSFDKACEFAGFQCQIQFGPHNEQKHKAGFLDLKDFLPKEYVKQKGERKIFQAHKNCGQMSEIEAKVRYVKLARSLKTYGVSFFLVKEKMKGKNKLVPRLLGITKECVMRVDEKTKEVIQEWNLTNIKRWAASPKSFTLDFGDYQDGYYSVQTTEGEQIAQLIAGYIDIILKKKKSKDHFGLEGDEESTMLEDSVSPKKSTVLQQQ

The test system of assay [1] is tyrosine phosphorylation of PIPKIγ661 (Src family kinases). Format: cell-based. The conditions noted are these: HEK293T cells, 1 μM for 30 min at 37°C; Fig. 2 A.
Assay [2] concerns integrin–talin interaction. The settings on record: ref Martel et al., 2001; cited from earlier work.
For assay [3], the target named is T1, fluorescein-labeled Y644-phosphorylated …. As to the kind of experiment: fluorescence polarisation. In general terms: Fluorescence polarisation rises when a labelled molecule tumbles more slowly, as on binding a larger partner.
Assay [4] deals with T2, fluorescein-labeled Y649-phosphorylated …. As to the kind of experiment: fluorescence polarisation.
Assay [5] has as its target B1. As to the kind of experiment: pull-down.
In assay [6] the target is B1. As to the kind of experiment: pull-down. This is another data set of the same source.

We go through six molecules from article PMC2173703 (The Journal of Cell Biology, 2003).

Read-outs that look alike come from different tables or passages of the source. Where no end group is shown, it is not given here. [ ]: non-standard residue; d: D form. pY = N[C@@H](Cc1ccc(OP(=O)(O)O)cc1)C(=O)O; pT = C[C@@H](OP(=O)(O)O)[C@H](N)C(=O)O

`CC(C)(C)n1nc(-c2ccc(Cl)cc2)c2c(N)ncnc21` [PP2]: the “inhibition of basal and FAK-induced tyrosine phosphorylation of PIPKIγ661” value in assay [1] was “inhibited”. For “Phosphatidylinositol 4,5-bisphosphate [PI4,5P2]”, in assay [2], the “increase of the integrin–talin binding affinity” value is given as roughly 10 fold. For the molecule B1, the “fold increase in binding affinity against the nonphosphorylated peptide” value in assay [3] and in assay [4] was roughly 15 fold each time. CMNAKWDTGENPIYKSA [β1-integrin peptide β1InPN (nonphosphorylated)]: the binding result in assay [5] is reported as “binds”. Same read-out and setting: to CMNAKWD[pT]GENPIYKSA [β1-integrin peptide β1InpT] belongs “binds”. On to CDERSWVYSPLHYSAR [PIPKIγ661 peptide PN (nonphosphorylated)], for which, in assay [6], the binding result is given as “binds”.
